# Laboratory results: paper PMC4569737, “Involvement of a eukaryotic-like ubiquitin-related modifier in the proteasome pathway of the archaeon Sulfolobus acidocaldarius” (Nature Communications, 2015)
# B1: Saci0613 20S proteasome α-subunit, untagged (natural protein, S. acidocaldarius, UniProt Q4JB24 1-242, looked up)
# chain: MALGPAAMGYDRAITIFSPDGSLYQVDYAFEAVKRGWTTLGVKTKSGVVLLAEKRKATQLLDVDGIEKIFMLDDHVGCTFAGLASDGRILIDYARSQALQHRLIYDEPISIEYLTKVISDVKQAYTQHGGVRPFGVALIVGGIDKGKQPKLLMTEPSGQFMPYYAVAIGQGGYTATEYLEKNYKEDLDIQSTILLALRALMATLKPGEKLNYSSVEIGYADVDSGTFKKLTTEERSDLLQKI
# notes: 20S proteasome α-subunit, S. acidocaldarius DSM639, Saci0613; also called Saci0613 α; 0613 α-subunit; source: E. coli Rosetta (DE3) pLysS, co-expressed with β-subunit(s); in heat-clarified lysate, and purified as part of the complex (Ni-NTA IMAC, size exclusion chromatography)
# B2: Saci0662ΔN, N-terminally truncated Saci0662 β-subunit (without the pro-peptide), His-tagged (domain or fragment, S. acidocaldarius, UniProt Q4JAY3 7-195, looked up)
# chain: TAIGIKTKDGVVLAAERRLSYGDFVLSKSARKVFKLGRFGIAGAGIVGDIQTLTRIMNVEIKYYEMYNSRKISARAAAKLLSVILYQNKVLPYISELLFGGVDEDGPKLFILDPIGSLIEDSYAAVGSGARVAIGVLEAEYNESLTSEAAKELAIKSMKSAVERDVMSGDGIDILIINKNNIYEDFIKI
# notes: source: E. coli Rosetta (DE3) pLysS, co-expressed with Saci0613 (with or without Saci0909ΔN); in heat-clarified lysate, and purified as part of the complex (Ni-NTA IMAC, size exclusion chromatography); not shown: His tag, C-terminal, kept
# B3: Saci0656 PAN (proteasome-activating nucleotidase) regulatory ATPase of S. acidocaldarius (enzyme, UniProt F2Z6H9 1-396, looked up)
# chain: MFGDVDSYKNRENNNNYDETLVKLLEEKIEALTKEIDKLRQDLNWYKTELEKLLAPPYIEATILDILPDGKVIVRSSSGPNLVVNVATNVDVSKLKPGMSVALSQRGSTIIDILPNREDIIVKSFELIEKPNIHYSDIGGLEDQINELREVVELPLKNKKLFEELGIEPPKGVLLYGPPGTGKTMLAKAVAAESNATFIHVVASEFAQKFVGEGARIVREVFELARKKAPSIIFIDELDAIAARRIDIGTSGEREIQRTLMQLLAEIDGFKALDNVKIIAATNRIDILDPAILRPGRFDRLIEVPLPDEKGRKEIFKIYLQRMRINENDKLNYDLIAQLTDGFSGADIKNVCTEAGYMAIREGRESIKFQDIIRAIDKIKKKNLRKAINTRTEKYL
# notes: ORF amplified from genomic DNA; also called PAN ATPase; PAN regulatory ATPase; source: E. coli Rosetta (DE3) pLysS, purified (details in the Supplementary Methods)
# What was measured:
# [1] = target: the molecule itself; assay: negative-stain transmission electron microscopy; purified 20S complexes at 0.035 mg/ml on carbon-coated grids, 2% uranyl acetate
# [2] = target: the molecule itself; assay: SEC-MALS; 100 μl protein complex at 2 mg/ml, Superdex 200 10/300 Increase GL, 20 mM Tris (pH 8.0), 300 mM NaCl, 25 °C
protein,measurement,setting,value
B1,binding result,[1],binds
B2,binding result,[1],binds
B3,stoichiometry N,[2],6
